± gives the standard deviation of the averaged measurements.
B1: library; numbered along this chain (parent)
chain: MNIQIGELAKRTACPVVTIRFYEQEGLLPPPGRSRGNFRLYGEEHVERLQFIRHCRSLDMPLSDVRTLLSYRKRPDQDCGEVNMLLDEHIRQVESRIGALLELKHHLVELREACSGARPAQSCGILQGLSDCVCDTRGTTAHPSD

Key:
[1] = variants of: B1; test: sfGFP reporter fluorescence (15 h) (µM FITC); higher = higher leak; settings: library round: Round 0; ligand: none
Protocol: (§1)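 Cell-free (BL21 Star DE3 extract, PANOx-SP) biosensing: 1 µL Echo-assembled reactions with linear PbrR variant templates (5 nM) and pPbrR-sfGFP reporter, with 1 µM Pb (lead chloride), 30 µM Zn (zinc acetate) or no ligand; endpoint sfGFP fluorescence after 15 h at 30 °C, calibrated as µM FITC. Round 0 library (alanine scan, site saturation, combinatorial) of PbrR from Cupriavidus metallidurans; 2 biological replicates.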

[2] = variants of: B1; test: sfGFP reporter fluorescence (15 h) (µM FITC); higher = stronger transcriptional activation; settings: library round: Round 0
Protocol: as §1

Variant | sfGFP reporter fluorescence [1] | sfGFP reporter fluorescence ([2]; ligand: 1 µM Pb) | sfGFP reporter fluorescence ([2]; ligand: 30 µM Zn)
H45A | 0.0599 ± 0.0018 | 0.07275 ± 0.00026 | 0.687 ± 0.088
R48A | 0.0546 ± 0.0015 | 0.0541 ± 0.0023 | 0.3984 ± 0.0031
Y41T | 0.0597 ± 0.0026 | 0.05974 ± 0.00052 | 0.0592 ± 0.0039
Y41V | 0.059 ± 0.001 | 0.05974 ± 0.00052 | 0.0687 ± 0.0013
Y41P | 0.0583 ± 0.001 | 0.0597 ± 0.001 | 0.0601 ± 0.0026
Y41S | 0.0603 ± 0.00078 | 0.0612 ± 0.0021 | 0.0616 ± 0.0015
Y41C | 0.0618 ± 0.0018 | 0.0592 ± 0.00078 | 0.0654 ± 0.0018
Y41G | 0.0563 ± 0.00078 | 0.0564 ± 0.001 | 0.0579 ± 0.0026
Y41A | 0.0616 ± 0.0042 | 0.0605 | 0.0651 ± 0.0013
Y41F | 0.0572 ± 0.0031 | 0.1001 ± 0.00052 | 1.19 ± 0.041
Y41N | 0.0594 ± 0.0031 | 0.0601 | 0.0597 ± 0.0015
Y41E | 0.0607 ± 0.00078 | 0.0625 ± 0.00078 | 0.0619 ± 0.0015
Y41Q | 0.0581 ± 0.0023 | 0.0597 | 0.0574 ± 0.0054
Y41W | 0.0586 | 0.0658 ± 0.0029 | 0.1977 ± 0.00078
Y41H | 0.0599 ± 0.0029 | 0.0618 ± 0.0023 | 0.0678 ± 0.0026
Y41D | 0.0601 ± 0.001 | 0.0607 ± 0.00078 | 0.0621 ± 0.0023
Y41L | 0.0597 | 0.0596 ± 0.0029 | 0.0729 ± 0.0083
Y41I | 0.0575 ± 0.0015 | 0.0572 ± 0.0021 | 0.0623 ± 0.0031
Y41K | 0.06047 ± 0.00052 | 0.061 ± 0.0029 | 0.0621 ± 0.0018
Y41R | 0.0618 ± 0.0013 | 0.0623 ± 0.001 | 0.0643 ± 0.0013
Y41M | 0.0629 ± 0.00078 | 0.0596 ± 0.0023 | 0.113 ± 0.0078
E47A | 0.0612 | 0.0779 ± 0.0049 | 0.791 ± 0.039

Variant | sfGFP reporter fluorescence [1] | sfGFP reporter fluorescence ([2]; ligand: 1 µM Pb) | sfGFP reporter fluorescence ([2]; ligand: 30 µM Zn)
P31A | 0.05736 ± 0.00026 | 0.0607 ± 0.0044 | 0.485 ± 0.04
P30E | 0.0621 ± 0.0013 | 0.08594 ± 0.00078 | 0.808 ± 0.075
P30F | 0.0603 ± 0.0018 | 0.0759 ± 0.001 | 0.489 ± 0.015
P30S | 0.06249 ± 0.00026 | 0.0801 ± 0.0039 | 0.651 ± 0.14
P30Q | 0.06395 ± 0.00026 | 0.0925 ± 0.0039 | 1.19 ± 0.066
P30L | 0.0614 ± 0.00078 | 0.0894 ± 0.0031 | 0.901 ± 0.0029
P30H | 0.0618 ± 0.00078 | 0.0808 ± 0.0023 | 0.659 ± 0.038
P30D | 0.0658 ± 0.0029 | 0.08338 ± 0.00026 | 0.391 ± 0.088
P30R | 0.06414 ± 0.00052 | 0.088 | 1.15 ± 0.039
P30G | 0.05699 ± 0.00026 | 0.0665 ± 0.0023 | 0.436 ± 0.021
P30A | 0.0623 ± 0.001 | 0.0748 ± 0.001 | 0.681 ± 0.087
P30M | 0.06322 ± 0.00026 | 0.09162 ± 0.00052 | 0.859 ± 0.079
P30C | 0.0599 ± 0.0023 | 0.0744 ± 0.0026 | 0.608 ± 0.025
P30W | 0.0634 ± 0.0015 | 0.0722 ± 0.0031 | 0.33 ± 0.015
P30V | 0.0619 ± 0.001 | 0.0924 ± 0.001 | 1 ± 0.0021
P30Y | 0.0616 ± 0.001 | 0.0771 ± 0.0049 | 0.612 ± 0.013
P30N | 0.0605 ± 0.0031 | 0.0753 ± 0.0049 | 0.628 ± 0.07
P30I | 0.0563 ± 0.0039 | 0.0869 ± 0.001 | 0.926 ± 0.2
P30K | 0.0632 ± 0.0029 | 0.0845 ± 0.0013 | 1.03 ± 0.023
P30T | 0.06395 ± 0.00026 | 0.0887 | 0.917 ± 0.17
I52A | 0.06341 ± 0.00052 | 0.0596 ± 0.0023 | 0.077 ± 0.0015
L28G | 0.05882 ± 0.00026 | 0.0581 ± 0.00078 | 0.059 ± 0.001
